{"source": "the DeepSol protein solubility set", "assay": "soluble on expression in E. coli; label from the status in PepcDB or PDB records", "data": [{"sequence": "MHLSRCRKCGRVMKGERIDPYRVKLTCSCGFSDFRTMTEKVKTVNPFFQKGGFSPLLESERGKMVLTMQRANREHLEIISLEEISMLVSSDFDLPEVLQHVTAKVATQLKVSVCNIYLREGDEVVLAATHGFDPAFIGKIRIKIGDGITGSVARDGQYISLSRASQDPRYRYFPELQEEKYNSMLSFPIGDKKEVYGVINLNTTSIRSFHEDEIYFVSIIANLILTAIKLRQQVASSRKAAEASA", "values": [{"measurement": "soluble on expression in E. coli", "value": "not soluble"}]}, {"sequence": "MLKKAEKFEKIFRLESSLRALERVRDFLSQESYERLRELVLIRLKGIKIEEKELNSKVAVAFSGGSDSSATYKILAWAGFKVYPITAKLPQMRDEVLKRLESGGAIFVEIPEYMEVMEDLIRKRTAICGRCHSMVMRAVEERARELGAEIVASGDMLTVGSGSIYEKDGIVILNLPAFLALDKKELLEILGWKKYELKYGCPLWKEAAKRAPVLKKFGLQRVLRELRGGALPKEFAKELIIDILRA", "values": [{"measurement": "soluble on expression in E. coli", "value": "not soluble"}]}, {"sequence": "MLITERIYVLEDVDVQAFLGVNNSNLMLLRTLFPKLRLVAHHNVLKIMGDSRETDRFLEVLEPMVAYCREYNLLPEDVILRIAQGAKLPADDVPKHLILHGTGGKSIIARGDNQQKLVEAFEANDLVFAIGPAGTGKTFVAISLAVRALKSKQVRRIILSRPAVEAGEKLGFLPGEMKDKLDPYLQPLYDALEEMIPAVKLKEYIENNIIQIAPLAYMRGRTLNDAVVILDEAQNTTELQMKMFLTRLGANAKMIVTGDITQTDLPRGVHSGLRQALNILQGTRGIGYIAFQRADIVRHPLVQRVVDAYDRYDAERKKEAEAAAVVAQTI", "values": [{"measurement": "soluble on expression in E. coli", "value": "not soluble"}]}, {"sequence": "MGSDKIHHHHHHMIEQQMPFRRILLTSDTFQILKEGQIISTFNKCGIFYCQRGSVEVSLEGCHYHIKPGDVYIYMASTLVHLLHKSEDAEGIMVEVDFYYILPIVNKVINVESQLFMRKNPCVSLSGEQCAHFEYLLNNLWDRINAEDCQKENVQYQHLKLELIKSMGQTICYEILNMYFTNQPLQPLQQGKKDVVFQNFMLSLFRFYRKERDVSFYARMQHITPRYFSAIIKEKTGDSALQWIVRMVITEAKQLLEESDLSIKEIADQLNFPTQSFFGKYFKQYVGVSPKEYRNNAATTRIKR", "values": [{"measurement": "soluble on expression in E. coli", "value": "not soluble"}]}, {"sequence": "MYIQVLGSAAGGGFPQWNCNCVNCKGYRDGTLKATARTQSSIALSDDGVHWILCNASPDIRAQLQAFAPMQPARALRDTGINAIVLLDSQIDHTTGLLSLREGCPHQVWCTDMVHQDLTTGFPLFNMLSHWNGGLQWNRIELEGSFVIDACPNLKFTPFPLRSAAPPYSPHRFDPHPGDNLGLMVEDTRTGGKLFYAPGLGQVDEKLLAMMHGADCLLVDGTLWEDDEMQRRGVGTRTGREMGHLAQNGPGGMLEVLDGFPRQRKVLIHINNTNPILDENSPERAEVLRRGVEVAFDGMSIELLEHHHHHH", "values": [{"measurement": "soluble on expression in E. coli", "value": "soluble"}]}, {"sequence": "MGPLLVWHRGDLRLHDHPALLEALARGPVVGLVVLDPNNLKTTPRRRAWFLENVRALREAYRARGGALWVLEGLPWEKVPEAARRLKAKAVYALTSHTPYGRYRDGRVREALPVPLHLLPAPHLLPPDLPRAYRVYTPFSRLYRGAAPPLPPPEALPKGPEEGEIPREDPGLPLPEPGEEAALAGLRAFLEAKLPRYAEERDRLDGEGGSRLSPYFALGVLSPRLAAWEAERRGGEGARKWVAELLWRDFSYHLLYHFPWMAERPLDPRFQAFPWQEDEALFQAWYEGKTGVPLVDAAMRELHATGFLSNRARMNAAQFAVKHLLLPWKRCEEAFRHLLLDGDRAVNLQGWQWAGGLGVDAAPYFRVFNPVLQGERHDPEGRWLKRWAPEYPSYAPKDPVVDLEEARRRYLRLARDLARG", "values": [{"measurement": "soluble on expression in E. coli", "value": "soluble"}]}, {"sequence": "MRLLVTGGAGFIGSHFVRQLLAGAYPDVPADEVIVLDSLTYAGNRANLAPVDADPRLRFVHGDIRDAGLLARELRGVDAIVHFAAESHVDRSIAGASVFTETNVQGTQTLLQCAVDAGVGRVVHVSTNQVYGSIDSGSWTESSPLEPNSPYAASKAGSDLVARAYHRTYGLDVRITRCCNNYGPYQHPEKLIPLFVTNLLDGGTLPLYGDGANVREWVHTDDHCRGIALVLAGGRAGEIYHIGGGLELTNRELTGILLDSLGADWSSVRKVADRKGHDLRYSLDGGKIERELGYRPQVSFADGLARTVRWYRENRGWWEPLKATAPQLPATAVEVSA", "values": [{"measurement": "soluble on expression in E. coli", "value": "soluble"}]}]}
